Laboratory results reported in patent US20160272693A1 (ZEALAND PHARMA A S, published 2016).
*1 amine or outer side, *2 acyl side, *3 side chain or, on linkers, in order; H or OH if unused. Bridges are numbered along the chain shown (N, C = ends). [ ]: non-standard residue; d: D form. The star is where a group is joined. C20 diacid = O=C(O)CCCCCCCCCCCCCCCCCCC(=O)*; γGlu = O=C(O)[C@H](CCC(=O)[*:2])N[*:1]; Hyp = O=C(O)[C@@H]1C[C@@H](O)CN1; NMeI = CC[C@H](C)[C@H](NC)C(=O)O; Aad = N[C@@H](CCCC(=O)O)C(=O)O; Orn = NCCC[C@H](N)C(=O)O; Sar = CNCC(=O)O

T1: human amylin receptor 3 (hAMYR3), hCTR2 co-expressed with human receptor activity modifying protein 3 (hRAMP3) (human, UniProt P30988 25-474; O60896 24-148)
T1 sequence (looked up) 1: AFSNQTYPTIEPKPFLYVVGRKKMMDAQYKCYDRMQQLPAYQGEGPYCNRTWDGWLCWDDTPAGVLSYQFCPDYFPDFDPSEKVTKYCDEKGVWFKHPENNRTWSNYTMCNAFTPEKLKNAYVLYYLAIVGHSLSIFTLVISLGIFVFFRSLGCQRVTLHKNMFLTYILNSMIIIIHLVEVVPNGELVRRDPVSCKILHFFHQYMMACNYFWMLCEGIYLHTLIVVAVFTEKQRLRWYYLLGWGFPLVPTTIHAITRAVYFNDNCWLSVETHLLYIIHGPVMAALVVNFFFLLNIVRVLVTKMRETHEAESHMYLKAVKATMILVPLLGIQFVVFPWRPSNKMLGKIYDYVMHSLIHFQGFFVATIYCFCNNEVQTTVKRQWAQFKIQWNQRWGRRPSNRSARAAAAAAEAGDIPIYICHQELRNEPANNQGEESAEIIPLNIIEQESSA
T1 sequence (looked up) 2: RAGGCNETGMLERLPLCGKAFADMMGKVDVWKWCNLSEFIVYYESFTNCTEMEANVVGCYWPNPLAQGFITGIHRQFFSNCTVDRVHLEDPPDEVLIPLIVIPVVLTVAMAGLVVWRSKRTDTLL

B1: [19CD]-isoGlu-R-C( )-GTAT-C( )-ATERLAHFLQRSSF-Gly(Me)-A-Ile(Me)-LSSTEVGS-Aad-T-Hyp-NH2 (Compd. 53) (peptide)
peptide: {C20 diacid}-[γGlu]RCGTATCATERLAHFLQRSSF[Sar]A[NMeI]LSSTEVGS[Aad]T[Hyp]-NH2
modifications: disulfide 3-8
SMILES: CC[C@H](C)[C@@H](C(=O)N[C@@H](CC(C)C)C(=O)N[C@@H](CO)C(=O)N[C@@H](CO)C(=O)N[C@H](C(=O)N[C@@H](CCC(=O)O)C(=O)N[C@H](C(=O)NCC(=O)N[C@@H](CO)C(=O)N[C@@H](CCCC(=O)O)C(=O)N[C@H](C(=O)N1C[C@H](O)C[C@H]1C(N)=O)[C@@H](C)O)C(C)C)[C@@H](C)O)N(C)C(=O)[C@H](C)NC(=O)CN(C)C(=O)[C@H](Cc1ccccc1)NC(=O)[C@H](CO)NC(=O)[C@H](CO)NC(=O)[C@H](CCCNC(=N)N)NC(=O)[C@H](CCC(N)=O)NC(=O)[C@H](CC(C)C)NC(=O)[C@H](Cc1ccccc1)NC(=O)[C@H](Cc1c[nH]cn1)NC(=O)[C@H](C)NC(=O)[C@H](CC(C)C)NC(=O)[C@H](CCCNC(=N)N)NC(=O)[C@H](CCC(=O)O)NC(=O)[C@@H](NC(=O)[C@H](C)NC(=O)[C@@H]1CSSC[C@H](NC(=O)[C@H](CCCNC(=N)N)NC(=O)CC[C@H](NC(=O)CCCCCCCCCCCCCCCCCCC(=O)O)C(=O)O)C(=O)NCC(=O)N[C@@H]([C@@H](C)O)C(=O)N[C@@H](C)C(=O)N[C@@H]([C@@H](C)O)C(=O)N1)[C@@H](C)O
B2: [19CD]-isoGlu-R-C( )-GTAT-C( )-ATERLAHFLQRSSF-Gly(Me)-A-Ile(Me)-LSSTEVGS-Orn-T-Hyp-NH2 (Compd. 51) (peptide)
peptide: {C20 diacid}-[γGlu]RCGTATCATERLAHFLQRSSF[Sar]A[NMeI]LSSTEVGS[Orn]T[Hyp]-NH2
modifications: disulfide 3-8
SMILES: CC[C@H](C)[C@@H](C(=O)N[C@@H](CC(C)C)C(=O)N[C@@H](CO)C(=O)N[C@@H](CO)C(=O)N[C@H](C(=O)N[C@@H](CCC(=O)O)C(=O)N[C@H](C(=O)NCC(=O)N[C@@H](CO)C(=O)N[C@@H](CCCN)C(=O)N[C@H](C(=O)N1C[C@H](O)C[C@H]1C(N)=O)[C@@H](C)O)C(C)C)[C@@H](C)O)N(C)C(=O)[C@H](C)NC(=O)CN(C)C(=O)[C@H](Cc1ccccc1)NC(=O)[C@H](CO)NC(=O)[C@H](CO)NC(=O)[C@H](CCCNC(=N)N)NC(=O)[C@H](CCC(N)=O)NC(=O)[C@H](CC(C)C)NC(=O)[C@H](Cc1ccccc1)NC(=O)[C@H](Cc1c[nH]cn1)NC(=O)[C@H](C)NC(=O)[C@H](CC(C)C)NC(=O)[C@H](CCCNC(=N)N)NC(=O)[C@H](CCC(=O)O)NC(=O)[C@@H](NC(=O)[C@H](C)NC(=O)[C@@H]1CSSC[C@H](NC(=O)[C@H](CCCNC(=N)N)NC(=O)CC[C@H](NC(=O)CCCCCCCCCCCCCCCCCCC(=O)O)C(=O)O)C(=O)NCC(=O)N[C@@H]([C@@H](C)O)C(=O)N[C@@H](C)C(=O)N[C@@H]([C@@H](C)O)C(=O)N1)[C@@H](C)O
B3: [19CD]-isoGlu-R-C( )-NTAT-C( )-ATQRLAHFL-Aad-RSSF-Gly(Me)-A-Ile(Me)-LSSTEVGSNT-Hyp-NH2 (Compd. 50) (peptide)
peptide: {C20 diacid-γGlu}-RCNTATCATQRLAHFL[Aad]RSSF[Sar]A[NMeI]LSSTEVGSNT[Hyp]-NH2
modifications: disulfide 2-7
SMILES: CC[C@H](C)[C@@H](C(=O)N[C@@H](CC(C)C)C(=O)N[C@@H](CO)C(=O)N[C@@H](CO)C(=O)N[C@H](C(=O)N[C@@H](CCC(=O)O)C(=O)N[C@H](C(=O)NCC(=O)N[C@@H](CO)C(=O)N[C@@H](CC(N)=O)C(=O)N[C@H](C(=O)N1C[C@H](O)C[C@H]1C(N)=O)[C@@H](C)O)C(C)C)[C@@H](C)O)N(C)C(=O)[C@H](C)NC(=O)CN(C)C(=O)[C@H](Cc1ccccc1)NC(=O)[C@H](CO)NC(=O)[C@H](CO)NC(=O)[C@H](CCCNC(=N)N)NC(=O)[C@H](CCCC(=O)O)NC(=O)[C@H](CC(C)C)NC(=O)[C@H](Cc1ccccc1)NC(=O)[C@H](Cc1c[nH]cn1)NC(=O)[C@H](C)NC(=O)[C@H](CC(C)C)NC(=O)[C@H](CCCNC(=N)N)NC(=O)[C@H](CCC(N)=O)NC(=O)[C@@H](NC(=O)[C@H](C)NC(=O)[C@@H]1CSSC[C@H](NC(=O)[C@H](CCCNC(=N)N)NC(=O)CC[C@H](NC(=O)CCCCCCCCCCCCCCCCCCC(=O)O)C(=O)O)C(=O)N[C@@H](CC(N)=O)C(=O)N[C@@H]([C@@H](C)O)C(=O)N[C@@H](C)C(=O)N[C@@H]([C@@H](C)O)C(=O)N1)[C@@H](C)O
B4: [19CD]-isoGlu-R-C( )-GTAT-C( )-ATERLAHFLQRSSF-Gly(Me)-A-Ile(Me)-LSSTEVGSGT-Hyp-NH2 (Compd. 52) (peptide)
peptide: {C20 diacid}-[γGlu]RCGTATCATERLAHFLQRSSF[Sar]A[NMeI]LSSTEVGSGT[Hyp]-NH2
modifications: disulfide 3-8
SMILES: CC[C@H](C)[C@@H](C(=O)N[C@@H](CC(C)C)C(=O)N[C@@H](CO)C(=O)N[C@@H](CO)C(=O)N[C@H](C(=O)N[C@@H](CCC(=O)O)C(=O)N[C@H](C(=O)NCC(=O)N[C@@H](CO)C(=O)NCC(=O)N[C@H](C(=O)N1C[C@H](O)C[C@H]1C(N)=O)[C@@H](C)O)C(C)C)[C@@H](C)O)N(C)C(=O)[C@H](C)NC(=O)CN(C)C(=O)[C@H](Cc1ccccc1)NC(=O)[C@H](CO)NC(=O)[C@H](CO)NC(=O)[C@H](CCCNC(=N)N)NC(=O)[C@H](CCC(N)=O)NC(=O)[C@H](CC(C)C)NC(=O)[C@H](Cc1ccccc1)NC(=O)[C@H](Cc1c[nH]cn1)NC(=O)[C@H](C)NC(=O)[C@H](CC(C)C)NC(=O)[C@H](CCCNC(=N)N)NC(=O)[C@H](CCC(=O)O)NC(=O)[C@@H](NC(=O)[C@H](C)NC(=O)[C@@H]1CSSC[C@H](NC(=O)[C@H](CCCNC(=N)N)NC(=O)CC[C@H](NC(=O)CCCCCCCCCCCCCCCCCCC(=O)O)C(=O)O)C(=O)NCC(=O)N[C@@H]([C@@H](C)O)C(=O)N[C@@H](C)C(=O)N[C@@H]([C@@H](C)O)C(=O)N1)[C@@H](C)O
B5: [19CD]-isoGlu-R-C( )-GTAT-C( )-ATERLADFLQRSSF-Gly(Me)-A-Ile(Me)-LSSTEVGSNT-Hyp-NH2 (Compd. 54) (peptide)
peptide: {C20 diacid}-[γGlu]RCGTATCATERLADFLQRSSF[Sar]A[NMeI]LSSTEVGSNT[Hyp]-NH2
modifications: disulfide 3-8
SMILES: CC[C@H](C)[C@@H](C(=O)N[C@@H](CC(C)C)C(=O)N[C@@H](CO)C(=O)N[C@@H](CO)C(=O)N[C@H](C(=O)N[C@@H](CCC(=O)O)C(=O)N[C@H](C(=O)NCC(=O)N[C@@H](CO)C(=O)N[C@@H](CC(N)=O)C(=O)N[C@H](C(=O)N1C[C@H](O)C[C@H]1C(N)=O)[C@@H](C)O)C(C)C)[C@@H](C)O)N(C)C(=O)[C@H](C)NC(=O)CN(C)C(=O)[C@H](Cc1ccccc1)NC(=O)[C@H](CO)NC(=O)[C@H](CO)NC(=O)[C@H](CCCNC(=N)N)NC(=O)[C@H](CCC(N)=O)NC(=O)[C@H](CC(C)C)NC(=O)[C@H](Cc1ccccc1)NC(=O)[C@H](CC(=O)O)NC(=O)[C@H](C)NC(=O)[C@H](CC(C)C)NC(=O)[C@H](CCCNC(=N)N)NC(=O)[C@H](CCC(=O)O)NC(=O)[C@@H](NC(=O)[C@H](C)NC(=O)[C@@H]1CSSC[C@H](NC(=O)[C@H](CCCNC(=N)N)NC(=O)CC[C@H](NC(=O)CCCCCCCCCCCCCCCCCCC(=O)O)C(=O)O)C(=O)NCC(=O)N[C@@H]([C@@H](C)O)C(=O)N[C@@H](C)C(=O)N[C@@H]([C@@H](C)O)C(=O)N1)[C@@H](C)O

Target: T1, human amylin receptor 3 (hAMYR3), hCTR2 …
Assay: cell-based or functional assay

| hAMYR3 EC50 (nM); cAMP induction [nM] | Binder |
| --- | --- |
| 0.1 | {C20 diacid}-[γGlu]RCNTATCATQRLAHFLQRSSF[Sar]A[NMeI]LSSTEVGSNT[Hyp]-NH2 (disulfide 3-8) [[19CD]-isoGlu-R-C( )-NTAT-C( )-ATQRLAHFLQRSSF-Gly(Me)-A-Ile(Me)-LSSTEVGSNT-Hyp-NH2 (Compd. 58)] |
| 0.13 | B1 |
| 0.08 | {C20 diacid-γGlu}-RCNTATCATERLAHFLQRSSF[Sar]A[NMeI]LSSTEVGSNT[Hyp]-NH2 (disulfide 2-7) [[19CD]-isoGlu-R-C( )-NTAT-C( )-ATERLAHFLQRSSF-Gly(Me)-A-Ile(Me)-LSSTEVGSNT-Hyp-NH2 (Compd. 56)] |
| 0.11 | B2 |
| 0.19 | B3 |
| 0.09 | B4 |
| 0.14 | B5 |
